B1: leronlimab (human IgG4 Fc) (antibody, V domains shown)
VH: EVQLVESGGGLVKPGGSLRLSCAASGYTFSNYWIGWVRQAPGKGLEWIGDIYPGGNYIRNNEKFKDKTTLSADTSKNTAYLQMNSLKTEDTAVYYCGSSFGSNYVFAWFTYWGQGTLVTVSS
VL: DIVMTQSPLSLPVTPGEPASISCRSSQRLLSSYGHTYLHWYLQKPGQSPQLLIYEVSNRFSGVPDRFSGSGSGTDFTLKISRVEAEDVGVYYCSQSTHVPLTFGQGTKVEIK
notes: also called PRO140; PRO 140
B2: macaque IgG4 LS leronlimab (antibody, V domains shown)
VH: B1 VH
VL: DIVMTQSPLSLPVTPGEPASISCRSSQRLLSSYGHTYLHWYLQKPGQSPQLLIYEVSNRFSGVPDRFSGSGSGTDFTLKISRVEAEDVGVYYCSQSTHVPLTFGQGTKVEIKR
notes: also called MacLS; macaque IgG4 LS variant

Tests used:
[1] = molecular target: T1, CCR5 on CD4+ T cells of rhesus macaques (rhesus macaque, UniProt P61813 1-352); assay: CCR5 receptor occupancy by flow cytometry on blood CD4+ T cells after a single 10 mg/kg s.c. dose in rhesus macaques
T1 construct: also called surface CCR5; CD195

[2] = molecular target: T1, CCR5 on CD4+ T cells of rhesus macaques; assay: CCR5 receptor occupancy by flow cytometry on blood, rectal and vaginal CD4+ T cells after a single 10 mg/kg s.c. dose in rhesus macaques

Binder	binding result [1]	binding result [2]
B1	binds	–
B2	–	binds

From patent US20240392015A1 (OREGON HEALTH AND SCIENCE UNIVERSITY, published 2024)
